Article PMC7374565 (Nature Communications, 2020)

Columns and labels:
[1] = molecular target: intrinsically disordered domain of human ANP32A (amino acids 144-249) (human, UniProt P39687 144-249); assay: NMR titration; settings: both partners purified
[2] = molecular target: intrinsically disordered domain of avian ANP32A (amino acids 149-281) (Gallus gallus); assay: NMR titration; settings: both partners purified

intrinsically disordered domain of human ANP32A (amino acids 144-249), sequence (P39687 144-249): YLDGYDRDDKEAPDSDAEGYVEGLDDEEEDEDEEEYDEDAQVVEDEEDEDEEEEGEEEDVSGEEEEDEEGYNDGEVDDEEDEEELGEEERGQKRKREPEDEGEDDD

B1: 627 domain of PB2 (E627), amino acids 538-693 (domain or fragment)
chain: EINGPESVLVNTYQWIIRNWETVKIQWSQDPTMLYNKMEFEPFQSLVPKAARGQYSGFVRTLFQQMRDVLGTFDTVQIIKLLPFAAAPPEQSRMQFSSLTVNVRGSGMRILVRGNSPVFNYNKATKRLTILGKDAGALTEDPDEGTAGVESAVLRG
KD of the individual sites [1]: > 1.4 mM
KD of the individual sites (tightest) [2]: ≥ 1.7 mM
Kd [2]: > 0.6 mM
